From publication PMC8342987
Like-named read-outs stand apart in the source and are kept apart here.

Substance | other (ubiquitination at K375) | other (ubiquitination at K517) | other (phosphorylation at Y525) | other (phosphorylation at Y526)
SYK: SYK (K375R, K517R) | changes | changes |  | 
SYK: SYK (Y525F, Y526F) |  |  | no change | no change
